Test results published in patent publication US20080014191A1.

Tests used:
[1] = molecular target: ΔF508 CFTR (Homo sapiens (Human)) (UniProt P13569); experiment: CFTR co-IP and Hsp90 immunoblot; HEK293 ΔF508 cells, ~60% knock-down of Aha1
[2] = molecular target: wild-type cystic fibrosis transmembrane conductance regulator (CFTR) (Homo sapiens (Human)) (UniProt P13569); experiment: CFTR co-IP, MudPIT MS; HT29 cells
[3] = molecular target: wild-type cystic fibrosis transmembrane conductance regulator (CFTR) (Homo sapiens (Human)) (UniProt P13569); experiment: CFTR co-IP, MudPIT MS; Calu-3 cells
[4] = molecular target: wild-type cystic fibrosis transmembrane conductance regulator (CFTR) (Homo sapiens (Human)) (UniProt P13569); experiment: CFTR co-IP, MudPIT MS; BHK cells

wild-type cystic fibrosis transmembrane conductance regulator (CFTR) (Homo sapiens (Human)), sequence (P13569 whole entry): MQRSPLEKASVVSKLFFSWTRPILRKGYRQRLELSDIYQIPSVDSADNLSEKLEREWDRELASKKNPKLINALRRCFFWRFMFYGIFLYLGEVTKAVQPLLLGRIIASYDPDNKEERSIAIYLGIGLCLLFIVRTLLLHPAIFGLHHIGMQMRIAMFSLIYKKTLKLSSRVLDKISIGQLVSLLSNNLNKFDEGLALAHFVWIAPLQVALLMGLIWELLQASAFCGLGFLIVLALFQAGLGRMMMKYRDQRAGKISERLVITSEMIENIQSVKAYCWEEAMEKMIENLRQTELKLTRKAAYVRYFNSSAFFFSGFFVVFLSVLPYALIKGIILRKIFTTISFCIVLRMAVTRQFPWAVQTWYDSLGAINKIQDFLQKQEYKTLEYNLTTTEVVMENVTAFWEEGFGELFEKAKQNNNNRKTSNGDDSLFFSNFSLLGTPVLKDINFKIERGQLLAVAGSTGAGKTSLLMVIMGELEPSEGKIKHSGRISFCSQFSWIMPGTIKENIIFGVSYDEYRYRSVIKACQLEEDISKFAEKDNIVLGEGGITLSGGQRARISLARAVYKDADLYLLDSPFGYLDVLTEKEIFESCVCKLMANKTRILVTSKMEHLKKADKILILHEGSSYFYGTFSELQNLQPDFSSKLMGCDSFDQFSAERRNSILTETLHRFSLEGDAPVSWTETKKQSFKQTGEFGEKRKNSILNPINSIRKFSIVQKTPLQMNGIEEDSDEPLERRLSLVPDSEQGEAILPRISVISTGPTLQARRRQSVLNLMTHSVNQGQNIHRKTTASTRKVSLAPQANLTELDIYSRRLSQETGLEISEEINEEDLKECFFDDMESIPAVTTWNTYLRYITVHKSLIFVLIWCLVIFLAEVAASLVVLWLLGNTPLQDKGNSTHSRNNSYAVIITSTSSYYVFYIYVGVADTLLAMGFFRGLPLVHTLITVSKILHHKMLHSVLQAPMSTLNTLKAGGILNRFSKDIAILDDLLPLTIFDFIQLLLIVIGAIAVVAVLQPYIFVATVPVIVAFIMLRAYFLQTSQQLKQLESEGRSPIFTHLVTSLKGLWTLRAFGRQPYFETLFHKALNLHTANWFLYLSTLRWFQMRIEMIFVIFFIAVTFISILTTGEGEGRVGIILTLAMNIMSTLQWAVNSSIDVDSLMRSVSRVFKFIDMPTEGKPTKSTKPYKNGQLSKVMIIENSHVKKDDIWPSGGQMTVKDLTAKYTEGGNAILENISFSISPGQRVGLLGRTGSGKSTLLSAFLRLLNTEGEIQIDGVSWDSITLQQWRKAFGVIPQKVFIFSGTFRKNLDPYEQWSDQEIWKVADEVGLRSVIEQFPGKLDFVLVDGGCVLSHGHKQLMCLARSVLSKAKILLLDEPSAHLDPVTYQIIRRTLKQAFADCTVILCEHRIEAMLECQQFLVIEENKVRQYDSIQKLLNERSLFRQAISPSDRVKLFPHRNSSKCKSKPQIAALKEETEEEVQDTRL
ΔF508 CFTR (Homo sapiens (Human)), sequence (P13569 other isoform, or with tags, fused parts or gaps mutant limits assumed): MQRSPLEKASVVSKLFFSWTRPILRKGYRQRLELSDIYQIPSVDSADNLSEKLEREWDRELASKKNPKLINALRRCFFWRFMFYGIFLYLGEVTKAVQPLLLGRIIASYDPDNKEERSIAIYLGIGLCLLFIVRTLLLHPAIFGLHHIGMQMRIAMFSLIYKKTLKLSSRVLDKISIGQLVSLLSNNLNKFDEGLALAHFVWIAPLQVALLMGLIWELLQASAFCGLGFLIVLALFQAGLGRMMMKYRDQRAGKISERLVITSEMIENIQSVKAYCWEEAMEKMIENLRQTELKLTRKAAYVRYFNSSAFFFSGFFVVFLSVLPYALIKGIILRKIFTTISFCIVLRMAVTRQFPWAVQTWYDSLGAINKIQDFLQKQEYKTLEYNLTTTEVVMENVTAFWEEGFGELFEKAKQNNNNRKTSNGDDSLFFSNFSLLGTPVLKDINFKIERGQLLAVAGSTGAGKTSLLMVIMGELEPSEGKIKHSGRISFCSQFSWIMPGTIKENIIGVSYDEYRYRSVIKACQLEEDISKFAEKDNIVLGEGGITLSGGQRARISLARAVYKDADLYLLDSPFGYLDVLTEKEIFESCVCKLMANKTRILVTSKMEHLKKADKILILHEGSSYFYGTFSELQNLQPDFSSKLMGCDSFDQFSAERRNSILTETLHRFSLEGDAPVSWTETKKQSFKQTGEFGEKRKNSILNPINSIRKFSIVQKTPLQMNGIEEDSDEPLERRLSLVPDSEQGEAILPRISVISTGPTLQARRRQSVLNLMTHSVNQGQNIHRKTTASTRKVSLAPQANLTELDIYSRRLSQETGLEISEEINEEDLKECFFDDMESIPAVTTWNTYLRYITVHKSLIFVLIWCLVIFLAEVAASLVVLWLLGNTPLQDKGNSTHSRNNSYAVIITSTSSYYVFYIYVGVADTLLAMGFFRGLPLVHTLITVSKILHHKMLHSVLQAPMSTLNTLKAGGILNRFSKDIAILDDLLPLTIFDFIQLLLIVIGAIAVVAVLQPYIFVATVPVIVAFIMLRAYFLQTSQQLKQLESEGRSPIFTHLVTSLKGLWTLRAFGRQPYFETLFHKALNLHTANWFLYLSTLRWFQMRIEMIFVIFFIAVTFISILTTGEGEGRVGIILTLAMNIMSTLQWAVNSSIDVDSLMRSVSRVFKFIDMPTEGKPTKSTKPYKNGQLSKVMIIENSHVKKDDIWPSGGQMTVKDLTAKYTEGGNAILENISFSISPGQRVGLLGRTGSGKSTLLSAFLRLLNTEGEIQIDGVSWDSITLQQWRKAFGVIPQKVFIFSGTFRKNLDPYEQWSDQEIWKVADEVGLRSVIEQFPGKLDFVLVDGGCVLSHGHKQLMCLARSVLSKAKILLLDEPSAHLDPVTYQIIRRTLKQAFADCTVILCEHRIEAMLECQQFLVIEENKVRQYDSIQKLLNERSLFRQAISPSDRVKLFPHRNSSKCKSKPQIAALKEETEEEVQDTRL

Row | Substance | decrease of bound Hsp90 (ratio of Hsp90 to CFTR in the immunoprecipitate) after Aha1 dsRNA against scrambled control [1] | % sequence coverage [2] | total peptide spectra [2] | unique peptide spectra [2] | % sequence coverage [3] | total peptide spectra [3] | unique peptide spectra [3] | % sequence coverage [4] | total peptide spectra [4] | unique peptide spectra [4]
1 | Hsp90 | 50 to 60% |  |  |  |  |  |  |  |  | 
2 | NHERF-2 (from UniProt Q15599 1-337) |  | 20% | 10 spectra | 7 spectra | 14% | 5 spectra | 4 spectra |  |  | 
3 | NHERF-1 (from UniProt O14745 2-358) |  | 11% | 2 spectra | 2 spectra |  |  |  | 20% | 6 spectra | 5 spectra
